Test results from patent US20220162291A1 (DUKE UNIVERSITY, published 2022).

B1: 22D10 (antibody, V domains shown)
VH: DVQLQESGPALVKPSQTVSLTCTVTGYSITNGNHWWNWIRQVSGSKLEWLGYIRSSGSSDSNPSLKSRISITRDTSKNQLFLHLNSMTTEDIATYYCARGGGLRHYFDYWGQGTTLTVSS
VL: DIQMTQSPASLSASVGDTVTITCRASGNIHNYLAWYHQKQGKSPQLLVYHAETLTDGVPSRFSGSGSGTQYSLKINSLQPEDFGSYYCQHFWSTPYTFGGGTKLEIKR
notes: Recombinant mouse IgG (made as IgG1 and IgG2c)
B2: 33B8 (antibody, V domains shown)
VH: EVKLVESGGGLVQPGGSLSLSCATSGFTFTDYYMNWVRQPPGKALEWLGFIRNKANGYTTEYSASVKGRFTISRDNSQSILYLQMNSLRAEDSATYYCACGNYVGYAMDYWGQGTSVTVSS
VL: DIVMSQSPSSLAVSAGEKVTMSCKSSQSLLNSRTRKNYLAWYQQKPGQSPKLLIYWASTRESGVPDRFTGSGSGTDFTLTISSVQAEDLAVYYCKQSYNLYTFGGGTKLEIKR
notes: as for B1
B3: HSV010-28 (antibody, V domains shown)
VH: QIQLVQSGPELKKPGETVKISCKASGYTFTTYGMSWVKQAPGKGLKWMGWINTYSGVSTYADDFKGRFAFSLETSASTAYLQINNLKNEDTATYFCAQVNYAMDYWGQGTSVTVSS
VL: DIVMTQSHKFLSTSVGDWVTITCKASQDVSTAVAWFQQKPGQSPKVLIYSASYRYTGVPDRFTGSGSGTDFTFTISSVQAEDLAVYYCQQHYSTPRTFGGGTKLEIKR
notes: Mouse monoclonal IgG
B4: HSV010-7 (antibody, V domains shown)
VH: QVQLQQSGPELVKPGASVKLSCKASGYTFTNYDINWVKQRPGQGLEWIGWIYPRDGSTKYNEKFKGKATLTIDTSSSTAYMELHSLTSEDSAVYFCARGIFYVNYDVYWGQGTLVTVSA
VL: DIQMTQSSSFLSVSLGGRVTITCKASDHINNWLAWYQQKPGHAPRLLISGAASLETGVPSRFSGSGSGKDYTLTITSLQTEDVATYYCQQYWSSPLTFGGGTKLELKR
notes: Mouse monoclonal IgG
B5: HSV010-34 (antibody, V domains shown)
VH: EVQLVESGGGLVQPGESLKLSCESNEYEFPSHDMSWVRKTPEKRLELVAAINSDGGSTYYPDTMERRFIISRDNTKKTLYLQMSSLRSEDTALYYCARHSSGYVLDYWGQGTSVTVSS
VL: DIQMTQSSSYLSVSLGGRVTITCKASDHINHWLAWYQQKPGNAPRLLISGATSLETGVPSRFSGSGSGKDYTLSIASLQTEDVATYYCQQYWSTPYTFGGGTKLEIKR
notes: Mouse monoclonal IgG
B6: HSV010-4 (antibody, V domains shown)
VH: QVQLKESGPGLVAPSQSLSITCTVSGFSLSRHDVSWVRQPPGKGLEWLGVIWGDGSTNYHSALISRLSISKDNSKSQVFLKLNSLQNDDTATYYCAKEDYGIFPYWGQGTLVTVSA
VL: DIKMTQSPSSMYASLGEKVTITCKASQDISSYLSWFQQKPGKSPKTLIYRANRLVDGVPSRFSGSGSGQDYSLSISSLDYEDMGIYYCLQYDEFPLTFGAGTKLELKR
notes: Mouse monoclonal IgG

What follows are binders tested against T1, glycoprotein B of HSV-1 (gB-1) (HSV-1, UniProt P10211 31-730) (assay: Luminex multiplex assay on gB-1-conjugated microspheres).
Protocol: The gB-1 binding of the antibodies was determined by Luminex multiplex assay. Mixtures of antigen (gB-1)-conjugated microspheres (1,000 counts each) were added to each well of 96-well filter plates (Millipore). […] Samples were diluted in PBS containing 1% cow milk, 1% BSA, 0.05% Tween 20 and 0.05% NaN₃. After washing, PE goat anti-mouse IgG was added to the plates and incubated for 1 hour at room temperature with mild agitation. After washing, microspheres were resuspended in PBS containing 1% BSA, 0.05% Tween 20 and 0.05% NaN₃ and fluorescent signals from each microsphere were measured in a Bio-Plex® 3D machine.

**Q.** Does B1 bind?
**A.** Result: no binding

**Q.** Does B2 bind?
**A.** Result: no binding

These binders were tested against T1, glycoprotein B of HSV-1 (gB-1) (assay: Luminex bead competition on gB-1; competitor BMPC-23 human IgG at 2 ng/ml).

**Q.** How did the “percent inhibition at 222 ng/ml” value turn out when B3 was run?
**A.** The value was 30%.

**Q.** Which “percent inhibition at 222 ng/ml” value does the source give for B4 here?
**A.** Its value is over 90%.

**Q.** How did the “percent inhibition at 222 ng/ml” value turn out when B5 was run?
**A.** The value was over 80%.

**Q.** For B6, which “percent inhibition at 222 ng/ml” value is on record?
**A.** The value was over 95%.
